What was measured:
[1] = target: CypA domain of rhesus macaque TRIMCyp (RhTC CypA) (rhesus macaque, UniProt P62940 1-165, D66N | R69H); assay: ITC
[2] = target: parental cyclophilin A (CypA) (rhesus macaque; identical in sequence …, UniProt P62940 1-165); assay: ITC

B1: HIV-2 N-terminal capsid (CA^N) domain (domain or fragment)
chain: not shown
Question: For B1, which Kd [1] is on record?
Answer: Its Kd is 3 µM.

Question: What about the dH [1] of the same binder?
Answer: The dH was -1.16 kcal/mol.

Question: And the Kd [2]?
Answer: Its Kd is 91 µM.

Reference: publication PMC3556581 (Nature structural & molecular biology, 2009)
